Results published in PMC4881810.

Biological target: SNA I lectin from Sambucus nigra (Sambucus nigra)
Test: electrochemical impedance spectroscopy

Chain of SNA I lectin from Sambucus nigra (Sambucus nigra) (Q41358 29-289 limits assumed, chain 1 of 2): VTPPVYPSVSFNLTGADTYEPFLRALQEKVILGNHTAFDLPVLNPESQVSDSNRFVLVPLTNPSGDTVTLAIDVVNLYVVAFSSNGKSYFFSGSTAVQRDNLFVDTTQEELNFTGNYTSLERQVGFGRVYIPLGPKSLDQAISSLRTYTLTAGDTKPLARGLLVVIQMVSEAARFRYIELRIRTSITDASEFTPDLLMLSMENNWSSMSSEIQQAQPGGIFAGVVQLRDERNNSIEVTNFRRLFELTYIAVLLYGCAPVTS
Chain of SNA I lectin from Sambucus nigra (Sambucus nigra) (Q41358 309-570 limits assumed, chain 2 of 2): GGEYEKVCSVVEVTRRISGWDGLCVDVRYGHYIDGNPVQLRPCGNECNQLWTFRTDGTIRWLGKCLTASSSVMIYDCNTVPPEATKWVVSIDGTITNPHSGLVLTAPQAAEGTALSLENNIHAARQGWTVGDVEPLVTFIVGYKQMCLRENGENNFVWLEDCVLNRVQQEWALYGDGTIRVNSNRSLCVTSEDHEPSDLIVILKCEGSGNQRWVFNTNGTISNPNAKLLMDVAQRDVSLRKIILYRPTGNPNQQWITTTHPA

B1: fetuin (natural protein)
chain: IPLDPVAGYKEPACDDPDTEQAALAAVDYINKHLPRGYKHTLNQIDSVKVWPRRPTGEVYDIEIDTLETTCHVLDPTPLANCSVRQQTQHAVEGDCDIHVLKQDGQFSVLFTKCDSSPDSAEDVRKLCPDCPLLAPLNDSRVVHAVEVALATFNAESNGSYLQLVEISRAQFVPLPVSVSVEFAVAATDCIAKEVVDPTKCNLLAEKQYGFCKGSVIQKALGGEDVRVTCTLFQTQPVIPQPQPDGAEAEAPSAVPDAAGPTPSAAGPPVASVVVGPSVVAVPLPLHRAHYDLRHTFSGVASVESSSGEAFHVGKTPIVGQPSIPGGPVRLCPGRIRYFKI
specific sensitivity (OxASF subtracted): 259 Ω decade^-1
